Source: article PMC3352997
Where two headings read alike, the source gives them in different places.

Experiments:
[1] = molecular target: Factor Xa (activated factor X), human plasma (human); experiment: titration of protease activity
[2] = molecular target: Factor Xa (activated factor X), human plasma (human); experiment: enzyme inhibition kinetics
[3] = molecular target: Factor XIa (activated factor XI), human plasma (human); experiment: titration of protease activity
[4] = molecular target: Factor Xa (activated factor X), human plasma (human); experiment: titration of protease activity; remark: listed apart in the source
[5] = molecular target: Factor XIa (activated factor XI), human plasma (human); experiment: titration of protease activity; remark: listed apart in the source
[6] = molecular target: Factor Xa (activated factor X), human plasma (human); experiment: titration of protease activity; remark: listed apart in the source
[7] = molecular target: Factor XIa (activated factor XI), human plasma (human); experiment: enzyme inhibition kinetics
[8] = molecular target: Factor XIa (activated factor XI), human plasma (human); experiment: enzyme inhibition kinetics; remark: listed apart in the source
[9] = molecular target: Factor Xa (activated factor X), human plasma (human); experiment: enzyme inhibition kinetics; remark: listed apart in the source
[10] = molecular target: Factor Xa (activated factor X), human plasma (human); experiment: enzyme inhibition kinetics; remark: listed apart in the source
[11] = molecular target: FXa-R240A (heparin-binding exosite mutant of factor Xa) (UniProt P00742); experiment: enzyme inhibition kinetics
[12] = molecular target: FXa-R240A (heparin-binding exosite mutant of factor Xa) (UniProt P00742); experiment: enzyme inhibition kinetics; remark: listed apart in the source

Chain of Factor Xa (activated factor X), human plasma (human) (P00742 whole entry): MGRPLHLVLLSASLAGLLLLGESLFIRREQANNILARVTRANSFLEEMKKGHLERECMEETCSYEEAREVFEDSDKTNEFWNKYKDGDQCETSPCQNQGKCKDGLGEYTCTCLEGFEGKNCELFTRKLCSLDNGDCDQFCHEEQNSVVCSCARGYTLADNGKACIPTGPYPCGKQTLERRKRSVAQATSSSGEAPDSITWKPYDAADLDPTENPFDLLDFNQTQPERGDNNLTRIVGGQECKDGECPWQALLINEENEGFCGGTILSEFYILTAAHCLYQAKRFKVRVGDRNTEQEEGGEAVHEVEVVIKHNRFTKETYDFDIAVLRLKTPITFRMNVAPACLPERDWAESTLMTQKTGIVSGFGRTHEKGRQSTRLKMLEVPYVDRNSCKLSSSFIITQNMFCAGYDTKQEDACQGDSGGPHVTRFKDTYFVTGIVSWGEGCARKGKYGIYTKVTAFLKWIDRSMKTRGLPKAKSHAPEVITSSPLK

Binder | SI (stoichiometry of inhibition) [1] [mol I/mol E] | k2(app) (apparent second-order association rate constant of inhibition) [2] [M⁻¹ s⁻¹] | k2(app) x SI (second-order rate constant corrected for SI) [2] [M⁻¹ s⁻¹] | SI (stoichiometry of inhibition) [3] [mol I/mol E] | SI (stoichiometry of inhibition) [4] [mol I/mol E] | SI (stoichiometry of inhibition) [5] [mol I/mol E] | SI (stoichiometry of inhibition) [6] [mol I/mol E] | k2(app) (apparent second-order association rate constant of inhibition) [7] [M⁻¹ s⁻¹] | k2(app) x SI (second-order rate constant corrected for SI) [7] [M⁻¹ s⁻¹] | k2(app) (apparent second-order association rate constant of inhibition) [8] [M⁻¹ s⁻¹] | k2(app) x SI (second-order rate constant corrected for SI) [8] [M⁻¹ s⁻¹] | k2(app) (apparent second-order association rate constant of inhibition) [9] [M⁻¹ s⁻¹] | k2(app) x SI (second-order rate constant corrected for SI) [9] [M⁻¹ s⁻¹] | k2(app) (apparent second-order association rate constant of inhibition) [10] [M⁻¹ s⁻¹] | k2 (second-order association rate constant of inhibition) [11] [M⁻¹ s⁻¹] | k2 (second-order association rate constant of inhibition) [12] [M⁻¹ s⁻¹] | fold decrease in reactivity in the presence of heparin [8] [fold] | fold decrease in reactivity in the presence of heparin [9] [fold] | k2(app) x SI (second-order rate constant corrected for SI) [10] [M⁻¹ s⁻¹]
ZPI-des-NT (ZPI with the first 52 residues of the acidic N-terminal tail deleted) (domain or fragment) QLAKETSNFGFSLLRKISMRHDGNMVFSPFGMSLAMTGLMLGATGPTETQIKRGLHLQALKPTKPGLLPSLFKGLRETLSRNLELGLTQGSFAFIHKDFDVKETFFNLSKRYFDTECVPMNFRNASQAKRLMNHYINKETRGKIPKLFDEINPETKLILVDYILFKGKWLTPFDPVFTEVDTFHLDKYKTIKVPMMYGAGKFASTFDKNFRCHVLKLPYQGNATMLVVLMEKMGDHLALEDYLTTDLVETWLRNMKTRNMEVFFPKFKLDQKYEMHELLRQMGIRRIFSPFADLSELSATGRNLQVSRVLQRTVIEVDERGTEAVAGILSEITAYSMPPVIKVDRPFHFMIYEETSGMLLFLGRVVNPTLL | 4.5 | 1.8e+06 | 8.1e+06 | 15.6 | 7.3 | 8.5 | 7.4 | 110000 | 940000 | 29000 | 450000 | 2100 | 15000 |  |  |  |  |  | 
Protein Z-dependent protease inhibitor, wild type (natural protein) LAPSPQSPETPAPQNQTSRVVQAPKEEEEDEQEASEEKASEEEKAWLMASRQQLAKETSNFGFSLLRKISMRHDGNMVFSPFGMSLAMTGLMLGATGPTETQIKRGLHLQALKPTKPGLLPSLFKGLRETLSRNLELGLTQGSFAFIHKDFDVKETFFNLSKRYFDTECVPMNFRNASQAKRLMNHYINKETRGKIPKLFDEINPETKLILVDYILFKGKWLTPFDPVFTEVDTFHLDKYKTIKVPMMYGAGKFASTFDKNFRCHVLKLPYQGNATMLVVLMEKMGDHLALEDYLTTDLVETWLRNMKTRNMEVFFPKFKLDQKYEMHELLRQMGIRRIFSPFADLSELSATGRNLQVSRVLQRTVIEVDERGTEAVAGILSEITAYSMPPVIKVDRPFHFMIYEETSGMLLFLGRVVNPTLL | 2.8 | 2.5e+06 |  | 10.2 | 3.8 | 4.3 | 4.1 | 420000 |  | 58000 |  | 3400 |  | 180000 | 30000 | 2800 |  |  | 
ZPI single mutant with Arg-128 substituted with Ala (natural protein) LAPSPQSPETPAPQNQTSRVVQAPKEEEEDEQEASEEKASEEEKAWLMASRQQLAKETSNFGFSLLRKISMRHDGNMVFSPFGMSLAMTGLMLGATGPTETQIKRGLHLQALKPTKPGLLPSLFKGLAETLSRNLELGLTQGSFAFIHKDFDVKETFFNLSKRYFDTECVPMNFRNASQAKRLMNHYINKETRGKIPKLFDEINPETKLILVDYILFKGKWLTPFDPVFTEVDTFHLDKYKTIKVPMMYGAGKFASTFDKNFRCHVLKLPYQGNATMLVVLMEKMGDHLALEDYLTTDLVETWLRNMKTRNMEVFFPKFKLDQKYEMHELLRQMGIRRIFSPFADLSELSATGRNLQVSRVLQRTVIEVDERGTEAVAGILSEITAYSMPPVIKVDRPFHFMIYEETSGMLLFLGRVVNPTLL |  |  |  |  |  |  |  |  |  |  |  |  |  |  |  |  | < 2 | < 2 | 
ZPI single mutant with Lys-113 substituted with Ala (natural protein) LAPSPQSPETPAPQNQTSRVVQAPKEEEEDEQEASEEKASEEEKAWLMASRQQLAKETSNFGFSLLRKISMRHDGNMVFSPFGMSLAMTGLMLGATGPTETQIKRGLHLQALAPTKPGLLPSLFKGLRETLSRNLELGLTQGSFAFIHKDFDVKETFFNLSKRYFDTECVPMNFRNASQAKRLMNHYINKETRGKIPKLFDEINPETKLILVDYILFKGKWLTPFDPVFTEVDTFHLDKYKTIKVPMMYGAGKFASTFDKNFRCHVLKLPYQGNATMLVVLMEKMGDHLALEDYLTTDLVETWLRNMKTRNMEVFFPKFKLDQKYEMHELLRQMGIRRIFSPFADLSELSATGRNLQVSRVLQRTVIEVDERGTEAVAGILSEITAYSMPPVIKVDRPFHFMIYEETSGMLLFLGRVVNPTLL |  |  |  |  |  |  |  |  |  |  |  |  |  |  |  |  | < 2 | < 2 | 
ZPI single mutant with Lys-125 substituted with Ala (natural protein) LAPSPQSPETPAPQNQTSRVVQAPKEEEEDEQEASEEKASEEEKAWLMASRQQLAKETSNFGFSLLRKISMRHDGNMVFSPFGMSLAMTGLMLGATGPTETQIARGLHLQALKPTKPGLLPSLFKGLRETLSRNLELGLTQGSFAFIHKDFDVKETFFNLSKRYFDTECVPMNFRNASQAKRLMNHYINKETRGKIPKLFDEINPETKLILVDYILFKGKWLTPFDPVFTEVDTFHLDKYKTIKVPMMYGAGKFASTFDKNFRCHVLKLPYQGNATMLVVLMEKMGDHLALEDYLTTDLVETWLRNMKTRNMEVFFPKFKLDQKYEMHELLRQMGIRRIFSPFADLSELSATGRNLQVSRVLQRTVIEVDERGTEAVAGILSEITAYSMPPVIKVDRPFHFMIYEETSGMLLFLGRVVNPTLL |  |  |  |  |  |  |  |  |  |  |  |  |  |  |  |  | < 2 | < 2 | 
ZPI single mutant with Lys-116 substituted with Ala (natural protein) LAPSPQSPETPAPQNQTSRVVQAPKEEEEDEQEASEEKASEEEKAWLMASRQQLAKETSNFGFSLLRKISMRHDGNMVFSPFGMSLAMTGLMLGATGPTETQIKRGLHLQALKPTAPGLLPSLFKGLRETLSRNLELGLTQGSFAFIHKDFDVKETFFNLSKRYFDTECVPMNFRNASQAKRLMNHYINKETRGKIPKLFDEINPETKLILVDYILFKGKWLTPFDPVFTEVDTFHLDKYKTIKVPMMYGAGKFASTFDKNFRCHVLKLPYQGNATMLVVLMEKMGDHLALEDYLTTDLVETWLRNMKTRNMEVFFPKFKLDQKYEMHELLRQMGIRRIFSPFADLSELSATGRNLQVSRVLQRTVIEVDERGTEAVAGILSEITAYSMPPVIKVDRPFHFMIYEETSGMLLFLGRVVNPTLL |  |  |  |  |  |  |  |  |  |  |  |  |  |  |  |  | < 2 | < 2 | 
ZPI-3A (ZPI with Lys-113, Lys-116 and Lys-125 substituted with Ala) (natural protein) LAPSPQSPETPAPQNQTSRVVQAPKEEEEDEQEASEEKASEEEKAWLMASRQQLAKETSNFGFSLLRKISMRHDGNMVFSPFGMSLAMTGLMLGATGPTETQIKRGLHLQALAPTAPGLLPSLFAGLRETLSRNLELGLTQGSFAFIHKDFDVKETFFNLSKRYFDTECVPMNFRNASQAKRLMNHYINKETRGKIPKLFDEINPETKLILVDYILFKGKWLTPFDPVFTEVDTFHLDKYKTIKVPMMYGAGKFASTFDKNFRCHVLKLPYQGNATMLVVLMEKMGDHLALEDYLTTDLVETWLRNMKTRNMEVFFPKFKLDQKYEMHELLRQMGIRRIFSPFADLSELSATGRNLQVSRVLQRTVIEVDERGTEAVAGILSEITAYSMPPVIKVDRPFHFMIYEETSGMLLFLGRVVNPTLL | 3.3 | 2e+06 | 6.6e+06 | 13.3 | 3.8 | 5.2 | 4.5 | 260000 | 1.4e+06 | 41000 | 540000 | 2600 | 12000 | 95000 |  |  |  |  | 360000
